# T1: PpZAT5 (Prunus persica, UniProt A0A251NAP4 1-283)
# T1 sequence: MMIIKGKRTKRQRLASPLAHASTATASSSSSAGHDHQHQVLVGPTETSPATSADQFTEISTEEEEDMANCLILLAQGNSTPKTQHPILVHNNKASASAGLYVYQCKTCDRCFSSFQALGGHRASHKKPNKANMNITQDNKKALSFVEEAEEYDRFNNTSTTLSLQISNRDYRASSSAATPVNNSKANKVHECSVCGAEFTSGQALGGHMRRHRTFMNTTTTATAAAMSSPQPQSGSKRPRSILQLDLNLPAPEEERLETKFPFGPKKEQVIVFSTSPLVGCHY
# T2: PpBBX32 (Prunus persica, UniProt A0A251PTV0 1-264)
# T2 sequence: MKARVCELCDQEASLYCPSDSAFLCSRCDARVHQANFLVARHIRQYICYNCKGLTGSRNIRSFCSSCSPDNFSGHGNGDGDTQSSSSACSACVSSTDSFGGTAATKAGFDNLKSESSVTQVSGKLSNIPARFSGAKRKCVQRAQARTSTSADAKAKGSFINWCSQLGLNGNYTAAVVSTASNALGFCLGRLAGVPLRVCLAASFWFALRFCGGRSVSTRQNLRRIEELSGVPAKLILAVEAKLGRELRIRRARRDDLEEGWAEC
# Assays:
# [1] = target: T1, PpZAT5; experiment: EMSA; LightShift Chemiluminescent EMSA kit (Thermo), biotin-labeled probes; buffer, salt, pH and temperature not stated; conditions: protein: recombinant; tags: N-terminal His-trigger factor (pColdTF fusion); blunt
# [2] = target: T2, PpBBX32; experiment: EMSA; shift weakened by increasing cold probe; LightShift Chemiluminescent EMSA kit (Thermo), biotin-labeled probes; buffer, salt, pH and temperature not stated; conditions: protein: recombinant; tags: N-terminal His-trigger factor (pColdTF fusion); label: biotin; blunt
# [3] = target: T1, PpZAT5; experiment: as above; conditions: protein: recombinant; tags: N-terminal His-trigger factor (pColdTF fusion); label: biotin; blunt
binder,measurement,setting,value
proPpMYB10.1 ACT core element 7 mutant (dsDNA) DNA 1: TCTTAGCTAGTTACCCTAGTTATCAAG DNA 2: CTTGATAACTAGGGTAACTAGCTAAGA,binding result,[1],no binding
proPpMYB10.1 G-box1&2 (dsDNA) DNA 1: CAGCTGTGATACGTGAACCACACGTGCTGACACTA DNA 2: TAGTGTCAGCACGTGTGGTTCACGTATCACAGCTG,binding result,[2],binds
proPpMYB10.1 ACT core element 7 (dsDNA) DNA 1: TCTTAGCTAACTGTTACTGTTATCAAG DNA 2: CTTGATAACAGTAACAGTTAGCTAAGA,binding result,[3],binds
